Laboratory results: PMC6048692 (Chemical Science, 2018)

B1: DsRed fused to MoTag2 (natural protein)
chain: MRSSKNVIKEFMRFKVRMEGTVNGHEFEIEGEGEGRPYEGHNTVKLKVTKGGPLPFAWDILSPQFQYGSKVYVKHPADIPDYKKLSFPEGFKWERVMNFEDGGVVTVTQDSSLQDGCFIYKVKFIGVNFPSDGPVMQKKTMGWEASTERLYPRDGVLKGEIHKALKLKDGGHYLVEFKSIYMAKKPVQLPGYYYVDSKLDITSHNEDYTIVEQYERTEGRHHLFL
B2: p53 tetramerization domain (TD), p53 324-356, fused with MoTag2 (domain or fragment)
chain: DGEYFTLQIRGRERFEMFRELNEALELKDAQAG

How the values were obtained:
SEC = biological target: the molecule itself; experiment: SEC
[1] = biological target: the molecule itself; experiment: MoTag2 comet formation, MT plus end tracking

Protein | stoichiometry N (SEC) | stoichiometry N [1]
B1 | 4 | –
B2 | – | 4
